Here are results for 21 molecules from patent US12448423 (Xencor, dated 2025).

The target in this test is T1, HIS-tagged human NKG2D (human, UniProt P26718 73-216, limits assumed).
T1 construct: Captured on HIS1K biosensors; not shown: HIS tag
T1 sequence (looked up): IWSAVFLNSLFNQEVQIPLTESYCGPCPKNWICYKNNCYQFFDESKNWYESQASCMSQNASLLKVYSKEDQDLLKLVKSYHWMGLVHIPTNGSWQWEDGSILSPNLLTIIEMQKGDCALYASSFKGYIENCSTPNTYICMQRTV
Description: Octet (BLI): His-tagged human NKG2D captured on HIS1K biosensors, dipped into 100 nM bivalent mAb.

Where a chain is given by its changes, count along the chain named. Names and notes keep the numbering of the source. Some results are limits rather than exact numbers.

B1: XENP27607 (antibody, human IgG1, kappa, V domains shown)
VH: EVQLVESGGGLVQPGGSLRLSCAVSGFSLTIYGVHWVRQAPGKGLEWVSVIWSGGSTDYNAKVKGRFTISKDNSKRTVYLQMNSLRAEDTAVYYCSRKSHDGYYGVMDYWGQGTTVTVSS
VL: DIQLTQSPDFQSVTPKEKVTITCRASQSIGTSIHWYQQKPDQSPKLLIKYASESISGIPSRFSGSGSGTDFTLTINSLEAEDAATYYCQQSNTWPLTFGAGTKVEIKR
notes: humanized bivalent anti-NKG2D mAb, IgG1 with ablation variants; also called mAb C[NKG2D]_H1L1_IgG1_PVA_/S267K
For the molecule B1, the Kd came out at 0.506 nM, the koff turned out to be 0.000357 s⁻¹ and the on-rate (kon) was 706000 M⁻¹ s⁻¹.

B2: XENP27608 (antibody, human IgG1, kappa, V domains shown)
VH: B1 VH
VL: DIQLTQSPSSLSASVGDRVTITCRASQSIGTSIHWYQQKPGKSPKLLIKYASESISGIPSRFSGSGSGTDFTLTISSLQPEDFATYYCQQSNTWPLTFGAGTKVEIKR
notes: humanized bivalent anti-NKG2D mAb, IgG1 with ablation variants; also called mAb C[NKG2D]_H1L2_IgG1_PVA_/S267K
For the molecule B2, the Kd amounted to 0.371 nM, the koff turned out to be 0.000308 s⁻¹ and the kon was found to be 832000 M⁻¹ s⁻¹.

B3: XENP27614 (antibody, human IgG1, kappa, V domains shown)
VH: QVQLQESGPGLVKPSETLSLTCTVSGFSLTSYGVHWIRQPPGKGLEWIGVIWAGGSTNYNPSLKSRVTISKDNSKSQVSLKLSSVTAADTAVYYCARGGYEGAAWFGYWGQGTLVTVSS
VL: DIQLTQSPATLSLSPGERATLSCRASSSVSYMHWYQQKPGQSPRPLIYATSNLASGVPARFSGSGSGTDYTLTISSLEPEDFAVYYCQQWNSNPLTFGAGTKVEIKR
notes: humanized bivalent anti-NKG2D mAb, IgG1 with ablation variants; also called mAb A[NKG2D]_H2L2_IgG1_PVA_/S267K
Regarding B3, the Kd was at most 0.001 nM, the koff was at most 1e-07 s⁻¹ and the kon was determined as 200000 M⁻¹ s⁻¹.

B4: XENP27612 (antibody, human IgG1, kappa, V domains shown)
VH: QVQLVQSGAEVKKPGASVKVSCKVSGFSLTSYGVHWIRQAPGQGLEWMGVIWAGGSTNYNSKFQGRVTMTKDNSKSTVYMELSSLRSEDTAVYYCARGGYEGAAWFGYWGQGTLVTVSS
VL: B3 VL
notes: humanized bivalent anti-NKG2D mAb, IgG1 with ablation variants; also called mAb A[NKG2D]_H1L2_IgG1_PVA_/S267K
In turn, B4 displayed a Kd of at most 0.001 nM, a dissociation rate constant (koff) of at most 1e-07 s⁻¹ and a kon of 224000 M⁻¹ s⁻¹.

B5: XENP27611 (antibody, human IgG1, kappa, V domains shown)
VH: B4 VH
VL: DIQLTQSPSSLSASVGDRVTITCRASSSVSYMHWYQQKPGKSPKPLIYATSNLASGVPARFSGSGSGTDYTLTISSLQPEDFATYYCQQWNSNPLTFGAGTKVEIKR
notes: humanized bivalent anti-NKG2D mAb, IgG1 with ablation variants; also called mAb A[NKG2D]_H1L1_IgG1_PVA_/S267K
In the case of B5, the Kd is at most 0.001 nM, the koff was at most 1e-07 s⁻¹ and the kon came out at 228000 M⁻¹ s⁻¹.

B6: XENP27613 (antibody, human IgG1, kappa, V domains shown)
VH: B3 VH
VL: B5 VL
notes: humanized bivalent anti-NKG2D mAb, IgG1 with ablation variants; also called mAb A[NKG2D]_H2L1_IgG1_PVA_/S267K
As to B6, the Kd was at most 0.001 nM, the koff is at most 1e-07 s⁻¹ and the on-rate constant (kon) amounted to 254000 M⁻¹ s⁻¹.

B7: XENP27591 (antibody, human IgG1, kappa, V domains shown)
VH: QVQLQQSGPELVRPGASVKLSCKASGYTFTSYWMNWVQQRPEQGLEWIGRIDPYDSETHYNQKFKDKAILTVDKSASTAYMQLSSLTSEDSAVYYCAKMGDYSFDYWGQGTTVTVSS
VL: DIQLTQSPASLSASVGETVTITCRASGNIHNYLAWYQQKQGKSPQVLVYNAKTLADGVPSRFSGSGSGTQYSLKINSLQPEDFGSYYCQHFWSTTWTFGGGTKLEIKR
notes: bivalent anti-NKG2D mAb, IgG1 with ablation variants; also called 11B2D10[NKG2D]_H0L0_IgG1_PVA_/S267K
Take B7: the Kd turned out to be 0.547 nM, the koff was 0.000792 s⁻¹ and the association rate constant (kon) stood at 1.45e+06 M⁻¹ s⁻¹.

B8: XENP27598 (antibody, human IgG1, kappa, V domains shown)
VH: QVQLVQSGAEVKKPGASVKVSCKASGYTFTSYWMNWVRQAPGQGLEWMGRIDPYDSETHYNQKFQGRVTMTVDKSTSTAYMELSSLRSEDTAVYYCAKMGDYSFDYWGQGTLVTVSS
VL: DIQLTQSPSSLSASVGDRVTITCRASGNIHNYLAWYQQKPGKSPKVLVYNAKTLADGVPSRFSGSGSGTDYTLTISSLQPEDFATYYCQHFWSTTWTFGGGTKVEIKR
notes: humanized bivalent anti-NKG2D mAb, IgG1 with ablation variants; also called mAb B[NKG2D]_H1L1_IgG1_PVA_/S267K
Molecule B8 returned a Kd of 0.679 nM, a koff of 0.000746 s⁻¹ and a kon of 1.1e+06 M⁻¹ s⁻¹.

B9: XENP27601 (antibody, human IgG1, kappa, V domains shown)
VH: EVQLVQSGAEVKKPGESLRISCKASGYTFTSYWMNWVRQMPGKGLEWMGRIDPYDSETHYNPSFQGHVTISVDKSISTAYLQWSSLKASDTAMYYCAKMGDYSFDYWGQGTLVTVSS
VL: B8 VL
notes: humanized bivalent anti-NKG2D mAb, IgG1 with ablation variants; also called mAb B[NKG2D]_H2L1_IgG1_PVA_/S267K
With B9, the Kd worked out at 0.894 nM, the koff amounted to 0.0011 s⁻¹ and the association rate constant (kon) amounted to 1.23e+06 M⁻¹ s⁻¹.

B10: XENP27604 (antibody, human IgG1, kappa, V domains shown)
VH: EVQLVESGGGLVQPGGSLRLSCAASGYTFTSYWMNWVRQAPGKGLVWVSRIDPYDSETHYNQKVKGRFTISVDKAKSTAYLQMNSLRAEDTAVYYCAKMGDYSFDYWGQGTLVTVSS
VL: B8 VL
notes: humanized bivalent anti-NKG2D mAb, IgG1 with ablation variants; also called mAb B[NKG2D]_H3L1_IgG1_PVA_/S267K
Take B10: the Kd turned out to be 1.01 nM, the koff worked out at 0.00194 s⁻¹ and the kon came out at 1.91e+06 M⁻¹ s⁻¹.

B11: XENP27603 (antibody, human IgG1, kappa, V domains shown)
VH: B9 VH
VL: DIQLTQSPDSLAVSLGERATINCKASGNIHNYLAWYQQKPGQSPKVLVYNAKTLADGVPSRFSGSGSGTDYTLTISSLQAEDVAVYYCQHFWSTTWTFGGGTKVEIKR
notes: humanized bivalent anti-NKG2D mAb, IgG1 with ablation variants; also called mAb B[NKG2D]_H2L2_IgG1_PVA_/S267K
Regarding B11, the Kd amounted to 0.703 nM, the koff amounted to 0.00121 s⁻¹ and the kon came out at 1.73e+06 M⁻¹ s⁻¹.

B12: XENP27599 (antibody, human IgG1, kappa, V domains shown)
VH: B8 VH
VL: B8 VL with T95P
notes: humanized bivalent anti-NKG2D mAb, IgG1 with ablation variants; also called mAb B[NKG2D]_H1_L1.1_IgG1_PVA_/S267K
B12 gave a Kd of 3.5 nM, a koff of 0.00169 s⁻¹ and an on-rate constant (kon) of 482000 M⁻¹ s⁻¹.

B13: XENP27600 (antibody, human IgG1, kappa, V domains shown)
VH: B8 VH
VL: B11 VL
notes: humanized bivalent anti-NKG2D mAb, IgG1 with ablation variants; also called mAb B[NKG2D]_H1L2_IgG1_PVA_/S267K
Molecule B13 returned a Kd of 0.595 nM, an off-rate (koff) of 0.000666 s⁻¹ and an on-rate constant (kon) of 1.12e+06 M⁻¹ s⁻¹.

B14: XENP27602 (antibody, human IgG1, kappa, V domains shown)
VH: B9 VH
VL: B8 VL with T95P
notes: humanized bivalent anti-NKG2D mAb, IgG1 with ablation variants; also called mAb B[NKG2D]_H2_L1.1_IgG1_PVA_/S267K
The molecule B14 came in with a Kd of 1.95 nM, an off-rate constant (koff) of 0.00144 s⁻¹ and a kon of 740000 M⁻¹ s⁻¹.

B15: XENP27605 (antibody, human IgG1, kappa, V domains shown)
VH: B10 VH
VL: B8 VL with T95P
notes: humanized bivalent anti-NKG2D mAb, IgG1 with ablation variants; also called mAb B[NKG2D]_H3_L1.1_IgG1_PVA_/S267K
For B15, the Kd came to 3.28 nM, the koff stood at 0.00943 s⁻¹ and the kon is 2.88e+06 M⁻¹ s⁻¹.

B16: XENP27606 (antibody, human IgG1, kappa, V domains shown)
VH: B10 VH
VL: B11 VL
notes: humanized bivalent anti-NKG2D mAb, IgG1 with ablation variants; also called mAb B[NKG2D]_H3L2_IgG1_PVA_/S267K
B16 showed a Kd of 1.15 nM, a koff of 0.00204 s⁻¹ and an association rate constant (kon) of 1.77e+06 M⁻¹ s⁻¹.

B17: XENP27592 (antibody, human IgG1, kappa, V domains shown)
VH: QVQLQQSGPGLVQPSQSLSITCTVSGFSLTIYGVHWVRQSPGKGLEWLGVIWSGGSTDYNAAFISRLSISKDNSKRQVFFKMSSLQANDTAIYYCSRKSHDGYYGVMDYWGQGTTVTVSS
VL: DIQLTQSPAILSVSPGERVSFSCRASQSIGTSIHWYQQRTNGSPRLLIKYASESISGIPSRFSGSGSGTDFTLSINGVESEDIADYYCQQSNTWPLTFGAGTKLEIKR
notes: bivalent anti-NKG2D mAb, IgG1 with ablation variants; also called 6E5A7[NKG2D]_H0L0_IgG1_PVA_/S267K
The molecule B17 had a Kd of at most 0.001 nM, an off-rate (koff) of at most 1e-07 s⁻¹ and an on-rate constant (kon) of 489000 M⁻¹ s⁻¹.

B18: XENP27597 (antibody, human IgG1, lambda, V domains shown)
VH: EVQLVESGGGVVQPGGSLRLSCAASGFTFSSYGMHWVRQAPGKGLEWVAFIRYDGSNKYYADSVKGRFTISRDNSKNTKYLQMNSLRAEDTAVYYCAKDRFGYYLDYWGQGTLVTVSS
VL: QPVLTQPSSVSVAPGETARIPCGGDDIETKSVHWYQQKPGQAPVLVIYDDDDRPSGIPERFFGSNSGNTATLSISRVEAGDEADYYCQVWDDNNDEWVFGGGTQLTVLG
notes: bivalent anti-NKG2D mAb, IgG1 with ablation variants; also called KYK-1.0[NKG2D]_H1L1_IgG1_PVA_/S267K
The molecule B18 gave a Kd of 0.613 nM, an off-rate (koff) of 0.00113 s⁻¹ and a kon of 1.85e+06 M⁻¹ s⁻¹.

B19: XENP27594 (antibody, V domains shown)
VH: EVQLVESGGGLVKPGGSLRLSCAASGFTFSSYSMNWVRQAPGKGLEWVSSITSSSSYIYYADSVKGRFTISRDNAKNSLYLQMNSLRAEDTAVYYCARDRRYFDWFPLDYRGQGTLVTVSS
VL: DIQMTQSPSSLSASVGDRVTITCRASQGISSWLAWYQQKPEKAPKSLIYAASSLQSGVPSRFSGSGSGTDFTLTISSLQPEDFATYYCQQYNGYPYTFGQGTKLEIKR
notes: bivalent anti-NKG2D mAb, IgG1 with ablation variants; also called mAb E[NKG2D]_H1L1_IgG1_PVA_/S267K
For B19, the Kd was 0.343 nM, the dissociation rate constant (koff) amounted to 0.000387 s⁻¹ and the kon is 1.13e+06 M⁻¹ s⁻¹.

B20: XENP27596 (antibody, human IgG1, kappa, V domains shown)
VH: QVQLVQSGAEVKKPGASVKVSCKASGYTFTNYWMHWVRQAPGQGLEWMGEIDPSDIYTNYAQKFQGRVTMTRDTSTSTVYMELSSLRSEDTAVYYCARGIYDGYYVYGMDYWGQGTTVTVSS
VL: YIQMTQSPSSLSASVGDRVTITCRSSQDISNYLNWYQQKPGKAPKLLIYYTSRLHSGVPSRFSGSGSGTDFTFTISSLQPEDIATYYCQQGKTLPRTFGGGTKVEIKR
notes: bivalent anti-NKG2D mAb, IgG1 with ablation variants; also called mAb D[NKG2D]_H1L1_IgG1_PVA_/S267K
As to B20, the Kd is at most 0.001 nM, the koff is at most 1e-07 s⁻¹ and the on-rate constant (kon) was 698000 M⁻¹ s⁻¹.

B21: XENP27593 (antibody, human IgG1, kappa, V domains shown)
VH: QVQLQESGPGLVAPSQSLSITCTVSGFSLTSYGVHWIRQPPGKGLEWLGVIWAGGSTNYNSALMSRLSISKDNSKSQVFLKMNSLQIDDTAMYYCARGGYEGAAWFGYWGQGTTVTVSS
VL: DIQLTQSPAILSASPGEKVTMTCRASSSVSYMHWYQQKPGSSPKPWIYATSNLASGVPARFSGSGSGTSYSLTISRVEAEDAATYYCQQWNSNPLTFGAGTKLEIKR
notes: bivalent anti-NKG2D mAb, IgG1 with ablation variants; also called 6H7E7[NKG2D]_H0L0_IgG1_PVA_/S267K
In turn, B21 yielded a Kd of at most 0.001 nM, a koff of at most 1e-07 s⁻¹ and an on-rate constant (kon) of 231000 M⁻¹ s⁻¹.
